“And” between values parts separate entries of the source, which are not always exact repeats. Equal entries are not always repeated.
Columns and labels:
Experiment in all cases: Steady-state kinetics of peptide cleavage, fluorescence polarisation
Assay type in all cases: biochemical
Aβ1–40 = conditions: for increase in kcat/KM (catalytic efficiency) on Aβ1–40 over wild-type NEP: relative to wild-type NEP
Method in brief: (§1)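 Reactions contain 1–500 nM NEP and 1–200 µM doubly labelled peptide (FAM, biotin) in pH 7.4 HEPES buffer at 37°C. Stop solution holds 2 mM 1,10-phenanthroline and 2 µM avidin, with 1 mM TCEP added for disulphide-containing peptides. Fluorescence polarisation then gives substrate cleaved, and initial rates versus substrate concentration yield kcat and KM.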

GLP-1 = conditions: substrate GLP-1
Method in brief: as §1

α-endorphin = conditions: substrate α-endorphin
Method in brief: as §1

Somatostatin 14 = conditions: substrate Somatostatin 14
Method in brief: as §1

Neurokinin A = conditions: substrate Neurokinin A
Method in brief: as §1

Substance P = conditions: substrate Substance P
Method in brief: as §1

[1] = substrate Aβ 1–40, 37°C, pH 7.4
[2] = ratio of wild-type NEP kcat/KM to that of the mutant

B1: NEPv: lead variant at round 2, human NEP ectodomain with the two mutations G399V and G714K (protein, UniProt P08473 52-750, looked up, variant G399V G714K)
extracellular domain: YDDGICKSSDCIKSAARLIQNMDATTEPCTDFFKYACGGWLKRNVIPETSSRYGNFDILRDELEVVLKDVLQEPKTEDIVAVQKAKALYRSCINESAIDSRGGEPLLKLLPDIYGWPVATENWEQKYGASWTAEKAIAQLNSKYGKKVLINLFVGTDDKNSVNHVIHIDQPRLGLPSRDYYECTGIYKEACTAYVDFMISVARLIRQEERLPIDENQLALEMNKVMELEKEIANATAKPEDRNDPMLLYNKMTLAQIQNNFSLEINGKPFSWLNFTNEIMSTVNISITNEEDVVVYAPEYLTKLKPILTKYSARDLQNLMSWRFIMDLVSSLSRTYKESRNAFRKALYVTTSETATWRRCANYVNGNMENAVGRLYVEAAFAGESKHVVEDLIAQIREVFIQTLDDLTWMDAETKKRAEEKALAIKERIGYPDDIVSNDNKLNNEYLELNYKEDEYFENIIQNLKFSQSKQLKKLREKVDKDEWISGAAVVNAFYSSGRNQIVFPAGILQPPFFSAQQSNSLNYGGIGMVIGHEITHGFDDNGRNFNKDGDLVDWWTQQSASNFKEQSQCMVYQYGNFSWDLAGGQHLNGINTLGENIADNGGLGQAYRAYQNYIKKNGEEKLLPGLDLNHKQLFFLNFAQVWCGTYRPEYAVNSIKTDVHSPKNFRIIGTLQNSAEFSEAFHCRKNSYMNPEKKCRVW
modifications: extracellular domain
- increase in kcat relative to wild-type NEP (Aβ1–40; substrate Aβ1–40): ~2 fold
- Km (Aβ1–40; [1]): 14 ± 1 µM
- kcat (Aβ1–40; [1]): 2.1 ± 0.1 s⁻¹
- Fold change in kcat/KM (Aβ1–40; substrate Aβ 1–40, ratio of wild-type NEP kcat/KM to that of the mutant): 0.055
- increase in kcat/KM (catalytic efficiency) on Aβ1–40 over wild-type NEP (Aβ1–40; substrate Aβ1–40): 18.5 fold and 20 fold
- increase in kcat/KM (catalytic efficiency) on Aβ1–40 over wild-type NEP (Aβ1–40; substrate Aβ1–40, listed as Neprilysin variant G399V/G714K): approximately 20 fold
- Km (GLP-1; 37°C, pH 7.4): 23 ± 4 µM
- kcat (GLP-1; 37°C, pH 7.4): 0.89 ± 0.07 s⁻¹
- Fold change in kcat/KM (GLP-1; [2]): 3.6
- Km (α-endorphin; 37°C, pH 7.4): 6.5 ± 1 µM
- kcat (α-endorphin; 37°C, pH 7.4): 0.089 ± 0.003 s⁻¹
- Fold change in kcat/KM (α-endorphin; [2]): 26
- Km (Somatostatin 14; 37°C, pH 7.4): 32 ± 3 µM
- kcat (Somatostatin 14; 37°C, pH 7.4): 9.1 ± 0.4 s⁻¹
- Fold change in kcat/KM (Somatostatin 14; [2]): 15
- Km (Neurokinin A; 37°C, pH 7.4): 34 ± 7 µM
- kcat (Neurokinin A; 37°C, pH 7.4): 1.1 ± 0.1 s⁻¹
- Fold change in kcat/KM (Neurokinin A; [2]): 52
- Km (Substance P; 37°C, pH 7.4): 92 ± 10 µM
- kcat (Substance P; 37°C, pH 7.4): 12 ± 0.9 s⁻¹
- Fold change in kcat/KM (Substance P; [2]): 8.7
